Experimental data published in the supplement of paper PMC12855868.

B1: library; numbered along this chain (parent)
chain: MAAAGGARLLRAASAVLGGPAGRWLHHAGSRAGSSGLLRNRGPGGSAEASRSLSVSARARSSSEDKITVHFINRDGETLTTKGKVGDSLLDVVVENNLDIDGFGACEGTLACSTCHLIFEDHIYEKLDAITDEENDMLDLAYGLTDRSRLGCQICLTKSMDNMTVRVPETVADARQSIDVGKTS

Variants of: B1
Experiment: scaled log2 fold change in cell abundance, elesclomol vs control (0 = silent mean, 1 = nonsense mean) (scaled log2 ratio); higher = higher viability under elesclomol (loss of FDX1 cuproptosis function)
Settings: glucose 10 mM
Procedure: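 Deep mutational scan of full-length human FDX1: a pooled saturation-mutagenesis ORF library (every residue 2-184 mutated to all 19 amino acids plus stop, and silent codons where available) was expressed by lentivirus in FDX1-knockout ABC1 (14 days) or HEK293T (11 days) cells grown with elesclomol (ES) or DMSO control. Variant abundance came from ORF sequencing. The log2 fold change (ES vs control, mean of duplicates) was centred on the silent-variant mean (0) and scaled to the nonsense-variant mean (1). Higher values mean greater viability under ES, i.e. loss of FDX1 function in cuproptosis.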

[1] = with ABC1 FDX1 KO, elesclomol 5 nM, 14 days
[2] = with HEK293T FDX1 KO, elesclomol 40 nM, 11 days
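Further: variant abundance is its share of total variant reads in each endpoint sample, from next-generation sequencing of the integrated ORF PCR-amplified out of genomic DNA.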

Variant | scaled log2 fold change [1] | scaled log2 fold change [2]
R8L | -0.0928 | -0.46
R8M | -0.909 | -0.722
R8N | 0.424 | -0.174
R8P | 0.109 | -0.395
R8Q | 0.308 | -0.248
R8S | 0.0501 | -0.479
R8T | -0.656 | -0.382
R8V | 0.395 | 0.881
R8W | 0.232 | 0.198
R8Y | 0.407 | 0.189
L9C | 0.282 | -0.0336
L9D | 0.403 | -0.529
L9E | 0.282 | -0.224
L9F | -0.0603 | 0.0924
L9G | 0.0757 | 1.11
L9H | -0.458 | 0.226
L9I | -0.993 | -0.482
L9K | 0.158 | –
L9M | 0.105 | 0.772
L9N | 0.353 | -0.636
L9P | 0.629 | 0.0788
L9Q | -0.0581 | 1.04
L9R | 0.455 | -0.0809
L9S | 0.156 | -0.659
L9T | 0.431 | –

Variant | scaled log2 fold change [1] | scaled log2 fold change [2]
L9V | 0.286 | -0.433
L9W | 0.434 | 0.233
L9Y | 0.485 | -0.192
L10C | -0.592 | 0.0724
L10D | 0.404 | 0.0467
L10E | 0.307 | -0.18
L10F | -0.0904 | -0.0054
L10G | 0.705 | –
L10H | 0.222 | -0.209
L10I | -0.165 | 0.0157
L10K | -0.11 | -0.14
L10M | 0.337 | 0.282
L10N | 0.128 | -0.352
L10P | -0.379 | –
L10Q | 0.168 | 0.352
L10R | 0.663 | –
L10S | 0.48 | 1.51
L10T | 0.0611 | –
L10V | 0.189 | -0.208
L10W | -0.304 | 0.734
L10Y | 0.409 | 0.302
R11A | 0.289 | -0.22
R11C | 0.0344 | -0.198
R11D | 0.509 | –
R11E | -0.0252 | -0.275

Variant | scaled log2 fold change [1] | scaled log2 fold change [2]
R11F | 0.139 | -0.474
R11G | 0.36 | -0.443
R11H | 0.0541 | -0.696
R11I | 0.175 | -0.673
R11K | 0.0892 | 1.03
R11L | 0.0826 | 0.444
R11M | -0.24 | 0.88
R11N | 0.137 | 0.131
R11P | 0.346 | –
R11Q | 0.24 | 0.0461
R11S | 0.406 | -0.404
R11T | 0.0343 | -0.658
R11V | 0.177 | -0.49
R11W | 0.0433 | 0.0594
R11Y | 0.189 | 0.793
A12C | 0.0882 | 0.2
A12D | 0.231 | 0.265
A12E | 0.118 | 0.751
A12F | 0.00609 | -0.148
A12G | 0.259 | -0.297
A12H | 0.526 | 0.197
A12I | 0.306 | -0.67
A12K | 0.0242 | -0.213
A12L | 0.128 | -0.0278
A12M | -0.178 | -0.222

Variant | scaled log2 fold change [1] | scaled log2 fold change [2]
A12N | -0.0628 | 0.996
A12P | -0.154 | -0.436
A12Q | 0.144 | 0.91
A12R | -0.455 | 0.571
A12S | 0.0823 | 1.03
A12T | -0.00479 | -0.247
A12V | 0.373 | –
A12W | 0.171 | –
A12Y | 0.376 | 0.577
A13C | 0.224 | 0.158
A13D | 0.543 | -0.132
A13E | 0.269 | 0.026
A13F | 0.0208 | 1.34
A13G | 0.519 | –
A13H | 0.0738 | -1.05
A13I | -0.0121 | 0.147
A13K | 0.137 | -0.0857
A13L | 0.256 | 0.56
A13M | -0.148 | 0.232
A13N | 0.0507 | -0.531
A13P | 0.188 | –
A13Q | 0.0333 | 0.653
A13R | -0.131 | 0.251
A13S | 0.157 | 0.0322
A13T | 0.0105 | -0.0204

Variant | scaled log2 fold change [1] | scaled log2 fold change [2]
A13V | 0.347 | –
A13W | 0.54 | -0.436
A13Y | -0.585 | 0.259
S14A | 0.422 | 0.495
S14C | 0.43 | -0.264
S14D | 0.306 | –
S14E | 0.366 | 0.442
S14F | -0.657 | –
S14G | 0.603 | –
S14H | -0.573 | –
S14I | -0.891 | -0.397
S14K | -0.193 | 0.475
S14L | -0.903 | 0.688
S14M | 0.348 | 0.298
S14P | 0.707 | –
S14Q | -0.469 | –
S14R | 0.602 | –
S14T | -0.472 | –
S14V | 0.113 | –
S14W | -0.0995 | -0.0707
S14Y | 0.283 | 0.523
A15C | 0.107 | 0.017
